Reference: patent US20260167699A1 (Chugai, published 2026)
Each block holds one binder with its values, some of them ahead of it.

Molecular target: T1, FcγRIIIa (human, UniProt P08637 17-208)
T1 construct: extracellular domain; also called 3a; FcγRIIIa extracellular domain
Assay: SPR (Biacore);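 also: antibody variants captured on an SPR sensor chip, with FcγRIIIa passed over as analyte in HBS-EP+ buffer at 25 °C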

T1 sequence (P08637 other isoform, or with tags, fused parts or gaps): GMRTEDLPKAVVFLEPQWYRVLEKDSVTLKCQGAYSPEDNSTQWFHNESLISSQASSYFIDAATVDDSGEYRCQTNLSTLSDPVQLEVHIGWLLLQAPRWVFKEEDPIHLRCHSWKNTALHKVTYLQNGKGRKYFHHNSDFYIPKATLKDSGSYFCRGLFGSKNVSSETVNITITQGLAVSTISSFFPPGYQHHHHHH

- He/Con 3a: 70.6 % of GpH7-A5/GpH7-B3/GpL16-k0
B1: GpH7-A5/GpH7-B3 variant S298_19Q/GpL16-k0 (antibody, human IgG1, kappa)
heavy 1: not shown
heavy 2: not shown
light: DIVMTQSPLSLPVTPGEPASISCQASESLVHSNRNTYLHWYLQKPGQSPQLLIYKVSNRFSGVPDRFSGSGSGTDFTLKISRVEAEDVGVYYCSQNTHVPPTFGQGTKVEIERTVAAPSVFIFPPSDEQLKSGTASVVCLLNNFYPREAKVQWKVDNALQSGNSQESVTEQDSKDSTYSLSSTLTLSKADYEKHKVYACEVTHQGLSSPVTKSFNRGEC
notes: copies: 1 + 1 + 2

- He/Con 3a: 73.9 % of GpH7-A5/GpH7-B3/GpL16-k0
B2: GpH7-A5/GpH7-B3 variant S239_06M/GpL16-k0 (antibody, human IgG1, kappa)
heavy 1: not shown
heavy 2: not shown
light: B1 light
notes: copies: 1 + 1 + 2

- He/Con 3a: 103 % of GpH7-A5/GpH7-B3/GpL16-k0
B3: GpH7-A5/GpH7-B3 variant S298_03V/GpL16-k0 (antibody, human IgG1, kappa)
heavy 1: not shown
heavy 2: not shown
light: B1 light
notes: copies: 1 + 1 + 2

- He/Con 3a: 90.7 % of GpH7-A5/GpH7-B3/GpL16-k0
B4: GpH7-A5/GpH7-B3 variant S298_07I/GpL16-k0 (antibody, human IgG1, kappa)
heavy 1: not shown
heavy 2: not shown
light: B1 light
notes: copies: 1 + 1 + 2

- He/Con 3a: 90.9 % of GpH7-A5/GpH7-B3/GpL16-k0
B5: GpH7-A5/GpH7-B3 variant S267_10E/GpL16-k0 (antibody, human IgG1, kappa)
heavy 1: not shown
heavy 2: not shown
light: B1 light
notes: copies: 1 + 1 + 2

- He/Con 3a: 67.1 % of GpH7-A5/GpH7-B3/GpL16-k0
B6: GpH7-A5/GpH7-B3 variant P331_18N/GpL16-k0 (antibody, human IgG1, kappa)
heavy 1: not shown
heavy 2: not shown
light: B1 light
notes: copies: 1 + 1 + 2

- He/Con 3a: 75.1 % of GpH7-A5/GpH7-B3/GpL16-k0
B7: GpH7-A5/GpH7-B3 variant Q295_04F/GpL16-k0 (antibody, human IgG1, kappa)
heavy 1: not shown
heavy 2: not shown
light: B1 light
notes: copies: 1 + 1 + 2

- He/Con 3a: 114 % of GpH7-A5/GpH7-B3/GpL16-k0
B8: GpH7-A5/GpH7-B3 variant S324_01G/GpL16-k0 (antibody, human IgG1, kappa)
heavy 1: not shown
heavy 2: not shown
light: B1 light
notes: copies: 1 + 1 + 2

- He/Con 3a: 100 % of GpH7-A5/GpH7-B3/GpL16-k0
B9: GpH7-A5/GpH7-B3 variant Q295_06M/GpL16-k0 (antibody, human IgG1, kappa)
heavy 1: not shown
heavy 2: not shown
light: B1 light
notes: copies: 1 + 1 + 2

- He/Con 3a: 64.3 % of GpH7-A5/GpH7-B3/GpL16-k0
B10: GpH7-A5/GpH7-B3 variant S267_19Q/GpL16-k0 (antibody, human IgG1, kappa)
heavy 1: not shown
heavy 2: not shown
light: B1 light
notes: copies: 1 + 1 + 2

- He/Con 3a: 53.3 % of GpH7-A5/GpH7-B3/GpL16-k0
B11: GpH7-A5/GpH7-B3 variant S267_01G/GpL16-k0 (antibody, human IgG1, kappa)
heavy 1: not shown
heavy 2: not shown
light: B1 light
notes: copies: 1 + 1 + 2

- He/Con 3a: 120 % of GpH7-A5/GpH7-B3/GpL16-k0
B12: GpH7-A5/GpH7-B3 variant Q295_14T/GpL16-k0 (antibody, human IgG1, kappa)
heavy 1: not shown
heavy 2: not shown
light: B1 light
notes: copies: 1 + 1 + 2

- He/Con 3a: 81.8 % of GpH7-A5/GpH7-B3/GpL16-k0
B13: GpH7-A5/GpH7-B3 variant Q295_11K/GpL16-k0 (antibody, human IgG1, kappa)
heavy 1: not shown
heavy 2: not shown
light: B1 light
notes: copies: 1 + 1 + 2

- He/Con 3a: 77.6 % of GpH7-A5/GpH7-B3/GpL16-k0
B14: GpH7-A5/GpH7-B3 variant S298_04F/GpL16-k0 (antibody, human IgG1, kappa)
heavy 1: not shown
heavy 2: not shown
light: B1 light
notes: copies: 1 + 1 + 2

- He/Con 3a: 52 % of GpH7-A5/GpH7-B3/GpL16-k0
B15: GpH7-A5/GpH7-B3 variant S267_18N/GpL16-k0 (antibody, human IgG1, kappa)
heavy 1: not shown
heavy 2: not shown
light: B1 light
notes: copies: 1 + 1 + 2

- He/Con 3a: 74.9 % of GpH7-A5/GpH7-B3/GpL16-k0
B16: GpH7-A5/GpH7-B3 variant S298_01G/GpL16-k0 (antibody, human IgG1, kappa)
heavy 1: not shown
heavy 2: not shown
light: B1 light
notes: copies: 1 + 1 + 2

- He/Con 3a: 151 % of GpH7-A5/GpH7-B3/GpL16-k0
B17: GpH7-A5/GpH7-B3 variant S298_02A/GpL16-k0 (antibody, human IgG1, kappa)
heavy 1: not shown
heavy 2: not shown
light: B1 light
notes: copies: 1 + 1 + 2

- He/Con 3a: 85.7 % of GpH7-A5/GpH7-B3/GpL16-k0
B18: GpH7-A5/GpH7-B3 variant Q295_18N/GpL16-k0 (antibody, human IgG1, kappa)
heavy 1: not shown
heavy 2: not shown
light: B1 light
notes: copies: 1 + 1 + 2

- He/Con 3a: 73.9 % of GpH7-A5/GpH7-B3/GpL16-k0
B19: GpH7-A5/GpH7-B3 variant P331_19Q/GpL16-k0 (antibody, human IgG1, kappa)
heavy 1: not shown
heavy 2: not shown
light: B1 light
notes: copies: 1 + 1 + 2

- He/Con 3a: 72.4 % of GpH7-A5/GpH7-B3/GpL16-k0
B20: GpH7-A5/GpH7-B3 variant S239_03V/GpL16-k0 (antibody, human IgG1, kappa)
heavy 1: not shown
heavy 2: not shown
light: B1 light
notes: copies: 1 + 1 + 2

- He/Con 3a: 74.4 % of GpH7-A5/GpH7-B3/GpL16-k0
B21: GpH7-A5/GpH7-B3 variant Q295_05P/GpL16-k0 (antibody, human IgG1, kappa)
heavy 1: not shown
heavy 2: not shown
light: B1 light
notes: copies: 1 + 1 + 2

- He/Con 3a: 90 % of GpH7-A5/GpH7-B3/GpL16-k0
B22: GpH7-A5/GpH7-B3 variant S239_08L/GpL16-k0 (antibody, human IgG1, kappa)
heavy 1: not shown
heavy 2: not shown
light: B1 light
notes: copies: 1 + 1 + 2

- He/Con 3a: 104 % of GpH7-A5/GpH7-B3/GpL16-k0
B23: GpH7-A5/GpH7-B3 variant S239_18N/GpL16-k0 (antibody, human IgG1, kappa)
heavy 1: not shown
heavy 2: not shown
light: B1 light
notes: copies: 1 + 1 + 2

- He/Con 3a: 70.9 % of GpH7-A5/GpH7-B3/GpL16-k0
B24: GpH7-A5/GpH7-B3 variant S239_02A/GpL16-k0 (antibody, human IgG1, kappa)
heavy 1: not shown
heavy 2: not shown
light: B1 light
notes: copies: 1 + 1 + 2

- He/Con 3a: 80.2 % of GpH7-A5/GpH7-B3/GpL16-k0
B25: GpH7-A5/GpH7-B3 variant Q295_16H/GpL16-k0 (antibody, human IgG1, kappa)
heavy 1: not shown
heavy 2: not shown
light: B1 light
notes: copies: 1 + 1 + 2

- He/Con 3a: 75 % of GpH7-A5/GpH7-B3/GpL16-k0
B26: GpH7-A5/GpH7-B3 variant S239_07I/GpL16-k0 (antibody, human IgG1, kappa)
heavy 1: not shown
heavy 2: not shown
light: B1 light
notes: copies: 1 + 1 + 2

- He/Con 3a: 171 % of GpH7-A5/GpH7-B3/GpL16-k0
B27: GpH7-A5/GpH7-B3 variant S239_10E/GpL16-k0 (antibody, human IgG1, kappa)
heavy 1: not shown
heavy 2: not shown
light: B1 light
notes: copies: 1 + 1 + 2

- He/Con 3a: 179 % of GpH7-A5/GpH7-B3/GpL16-k0
B28: GpH7-A5/GpH7-B3 variant S267_09D/GpL16-k0 (antibody, human IgG1, kappa)
heavy 1: not shown
heavy 2: not shown
light: B1 light
notes: copies: 1 + 1 + 2

- He/Con 3a: 52.1 % of GpH7-A5/GpH7-B3/GpL16-k0
B29: GpH7-A5/GpH7-B3 variant S298_12R/GpL16-k0 (antibody, human IgG1, kappa)
heavy 1: not shown
heavy 2: not shown
light: B1 light
notes: copies: 1 + 1 + 2

- He/Con 3a: 65.3 % of GpH7-A5/GpH7-B3/GpL16-k0
B30: GpH7-A5/GpH7-B3 variant S267_06M/GpL16-k0 (antibody, human IgG1, kappa)
heavy 1: not shown
heavy 2: not shown
light: B1 light
notes: copies: 1 + 1 + 2

- He/Con 3a: 74.9 % of GpH7-A5/GpH7-B3/GpL16-k0
B31: GpH7-A5/GpH7-B3 variant P331_15Y/GpL16-k0 (antibody, human IgG1, kappa)
heavy 1: not shown
heavy 2: not shown
light: B1 light
notes: copies: 1 + 1 + 2
